# Reference: PMC4917244
# Key:
# [1] = molecular target: T1, Ros1WOPR-His (Ustilago maydis (FB1?)) (UniProt A0A0D1BVT7); test: EMSA
# T1 sequence: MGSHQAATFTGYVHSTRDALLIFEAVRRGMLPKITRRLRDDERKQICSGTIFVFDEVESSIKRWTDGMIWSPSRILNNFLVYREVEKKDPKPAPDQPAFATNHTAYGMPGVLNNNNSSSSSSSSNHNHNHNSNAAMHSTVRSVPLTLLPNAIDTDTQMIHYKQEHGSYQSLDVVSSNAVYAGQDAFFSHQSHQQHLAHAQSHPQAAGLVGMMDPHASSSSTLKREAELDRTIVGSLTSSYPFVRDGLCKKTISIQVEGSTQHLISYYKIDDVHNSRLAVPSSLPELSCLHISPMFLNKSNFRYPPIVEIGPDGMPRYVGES
# [2] = molecular target: T1, Ros1WOPR-His (Ustilago maydis (FB1?)); test: competition EMSA
Sequence,binding [1],binding [2]
CGCCAGAGACAAGTACTGTTCCCAATTCGGAGCTTCGCCGTGAACCACGAATTCATGCATTTCCATATTGGCAAAATATTAAAAAATTGAGGGTTTTGGCGTTGGCCTTTTGAGAGTTTATTTTAGATTTAATTAAGTGATTATGAGGATGATTCTTTTTCTTCATCTTCCTGTAACCGTCACCTGCCACGCTTGCCTAGACGCAGCAGTATCCACTCCGTAGGCGTATGCTATTGT (double strand) [WT-probe (ros1 promoter)],binds,–
CGCCAGAGACAAGTACTGTTCCCAATTCGGAGCTTCGCCGTGAACCACGAATTCATGCATTTCCATATTGGCAAAATATTAAAAAATTGAGGGTTTTGGCGTTGGCCTTTTGAGAGTTTATTTTAGATTTAATTAAGTGATTATGAGGATGATTCTTTTTCTTCATCTTCCTGTAACCGTCACCTGCCACGCTTGCCTAGACGCAGCAGTATCCACTCCGTAGGCGTATGCTATTGT (double strand) [WT-probe unlabeled competitor],–,binds
